In US11629364B2, “Methods for synthesizing anticoagulant polysaccharides” (OPTIMVIA, LLC, priority 2019, dated 2023):
Changes are numbered by the printed parent chain.

B1: SEQ ID NO: 6: engineered aryl sulfate-dependent NST enzyme, mutant of N-sulfotransferase domain of human NDST (protein)
chain: MSEEKDPLWQDPCEDKRHKDIWSKEKTCDRFPKLLIIGPHGTGGHALYLFLGMHPDLSSNYPSSETGEEIQFFNGHNYHKGIDWYMEFFPIPSNTTSDFYFEKSANYFDSEVAPRRAAALLPKAKVLTILINPADRAYSWYQAQRAHDDPVALKYTFHEVITAGSDASSKLRALQNRCLVPGWYATHIERWLSAYHANQILVLDGKLLRTEPAKVMDMVQKFLGVTNTIDYHKTLAFDPKKGFWCQLLEGGKTKCGGKHLGRKYPEMDLDSRAFLKDYYRDHNIELSKLLYKMGQTLPTWLREDLQNTR
modifications: Amino acid sequence encoding for engineered arylsulfate-dependent N-sulfotransferase variant 3
notes: engineered aryl sulfate-dependent NST enzyme, mutant of N-sulfotransferase domain of human NDST
B2: SEQ ID NO: 8: engineered aryl sulfate-dependent NST enzyme, mutant of N-sulfotransferase domain of human NDST (protein)
chain: MSEEKDPLWQDPCEDKRHKDIWSKEKTCDRFPKLLIIGPHGTGGHALYLFLGMHPDLSSNYPSSETFLSIQFFNGHNYHKGIDWYMEFFPIPSNTTSDFYFEHSGNYFDSEVAPRRAAALLPKAKVLTILINPADRAYRAYVWQRAHDDPVALKYTFHEVITAGSDASSKLRALQNRCLVPGWYATHIERWLSAYHANQILVLDGKLLRTEPAKVMDMVQKFLGVTNTIDYHKTLAFDPKKGFWCQLLEGGKTKCLGKSLGSKYPEMDLDSRAFLKDYYRDHNIELSKLLYKMGQTLPTWLREDLQNTR
modifications: Amino acid sequence encoding for engineered arylsulfate-dependent N-sulfotransferase variant 4
notes: as for B1
B3: SEQ ID NO: 35: mutant of N-sulfotransferase domain of pig NDST carrying the SEQ ID NO: 2 mutations (protein)
chain: MSEEKDPLWQDPCEDKRHKDIWSKEKTCDRFPKLLIIGPQKTGAWALYHFLGLHPDLSSNYPSSETHGSIQFFNGHNYHKGIDWYMDFFPIPSNTTSDFYFEKSANYFDSDVAPRRAAALLPKAKVLTILINPADRAYSWYQHQRAHDDPAALRYTFHEVITAGPDASLKLRALQNRCLVPGWYATHLERWLGAFHANQILVLDGKLLRTEPARVMDTVQKFLGVTNTIDYHKTLAFDPKKGFWCQLLEGGKTKCLGRSHGRKYPDMDPDSRAFLRDYYRDHNIELSKLLYKMGQTLPTWLREELQNTR
modifications: Amino acid sequence encoding for engineered arylsulfate-dependent N-sulfotransferase variant 9
B4: SEQ ID NO: 36: mutant of N-sulfotransferase domain of pig NDST carrying the SEQ ID NO: 4 mutations (protein)
chain: MSEEKDPLWQDPCEDKRHKDIWSKEKTCDRFPKLLIIGPSKTGAFLLTHFLGLHPDLSSNYPSSETGHSIQFFNGHNYHKGIDWYMDFFPIPSNTTSDFYFETSSNYFDSDVAPRRAAALLPKAKVLTILINPADRAYSWYQHQRAHDDPAALRYTFHEVITAGPDASLKLRALQNRCLVPGWYATHLERWLGAFHANQILVLDGKLLRTEPARVMDTVQKFLGVTNTIDYHKTLAFDPKKGFWCQLLEGGKTKCHGRRWGRKYPDMDPDSRAFLRDYYRDHNIELSKLLYKMGQTLPTWLREELQNTR
modifications: Amino acid sequence encoding for engineered arylsulfate-dependent N-sulfotransferase variant 10
B5: SEQ ID NO: 37: mutant of N-sulfotransferase domain of pig NDST carrying the SEQ ID NO: 6 mutations (protein)
chain: MSEEKDPLWQDPCEDKRHKDIWSKEKTCDRFPKLLIIGPHHTGGHALYLFLGLHPDLSSNYPSSETGEEIQFFNGHNYHKGIDWYMDFFPIPSNTTSDFYFEKSANYFDSDVAPRRAAALLPKAKVLTILINPADRAYSWYQAQRAHDDPAALRYTFHEVITAGPDASLKLRALQNRCLVPGWYATHLERWLGAFHANQILVLDGKLLRTEPARVMDTVQKFLGVTNTIDYHKTLAFDPKKGFWCQLLEGGKTKCGGRHLGRKYPDMDPDSRAFLRDYYRDHNIELSKLLYKMGQTLPTWLREELQNTR
modifications: Amino acid sequence encoding for engineered arylsulfate-dependent N-sulfotransferase variant 11
B6: SEQ ID NO: 38: mutant of N-sulfotransferase domain of pig NDST carrying the SEQ ID NO: 8 mutations (protein)
chain: MSEEKDPLWQDPCEDKRHKDIWSKEKTCDRFPKLLIIGPHGTGGHALYLFLGLHPDLSSNYPSSETFLSIQFFNGHNYHKGIDWYMDFFPIPSNTTSDFYFEHSGNYFDSDVAPRRAAALLPKAKVLTILINPADRAYRAYVWQRAHDDPAALRYTFHEVITAGPDASLKLRALQNRCLVPGWYATHLERWLGAFHANQILVLDGKLLRTEPARVMDTVQKFLGVTNTIDYHKTLAFDPKKGFWCQLLEGGKTKCLGRSLGSKYPDMDPDSRAFLRDYYRDHNIELSKLLYKMGQTLPTWLREELQNTR
modifications: Amino acid sequence encoding for engineered arylsulfate-dependent N-sulfotransferase variant 12
B7: SEQ ID NO: 39: mutant of N-sulfotransferase domain of pig NDST carrying the SEQ ID NO: 10 mutations (protein)
chain: MSEEKDPLWQDPCEDKRHKDIWSKEKTCDRFPKLLIIGPHKTGVHALYLFLGLHPDLSSNYPSSETGNHIGFFGGHNYHKGIDWYMDFFPIPSNTTSDFYFEKSAWYFDSDVAPRRAAALLPKAKVLTILINPADRAYSWYQHQRAHDDPAALRYTFHEVITAGPDASLKLRALQNRCLVPGWYATHLERWLGAFHANQILVLDGKLLRTEPARVMDTVQKFLGVTNTIDYHKTLAFDPKKGFWCQLLEGGKTKCLGRSVGRKYPDMDPDSRAFLRDYYRDHNIELSKLLYKMGQTLPTWLREELQNTR
modifications: Amino acid sequence encoding for engineered arylsulfate-dependent N-sulfotransferase variant 13
B8: SEQ ID NO: 40: mutant of N-sulfotransferase domain of pig NDST carrying the SEQ ID NO: 12 mutations (protein)
chain: B3 chain with Q40A, A46L, Y48H, G68S, K103T, L256A, G257H, S259G, H260L
modifications: Amino acid sequence encoding for engineered arylsulfate-dependent N-sulfotransferase variant 14

assay: NST activity: N-sulfated products detected by SAX-HPLC after lyase digestion; type: biochemical; details: PNS or NCS as sulfo donor, N-deacetylated heparosan acceptor, 37° C. overnight
Method: A study was conducted in accordance with embodiments of the present disclosure to confirm NST activity of enzymes comprising the amino acid sequence of SEQ ID NO: 2, SEQ ID NO: 4, SEQ ID NO: 6, SEQ ID NO: 8, SEQ ID NO: 10, or SEQ ID NO: 12 by detecting the presence of N-sulfated polysaccharide products formed as a result of their sulfotransfer reaction, using mass spectrometry (MS). Each engineered enzyme was purified according to the procedure of Example 1. Sulfotransferase activity was monitored in 100 μL reactions containing 50 μM of enzyme. To each purified protein solution, 20 mg of an aryl sulfate compound (either PNS or NCS) was dissolved in 2 mL of reaction buffer (50 mM IVIES pH 7.0, 2 mM CaCl2)), added to the protein solution, and incubated at 37° C. for 10 min. 2.5 mL of 2 mg/mL solution of N-deacetylated heparosan was added to protein/donor solution and incubated overnight at 37° C. The N-deacetylated heparosan was synthesized according to the protocol described in Balagurunathan, K. et al (eds.) (2015), Glycosaminoglycans: Chemistry and Biology, Methods in Molecular Biology, vol. 1229, DOI 10.1007/978-1-4939-1714-3_2, ©Springer Science+Business Media, New York, pp. 11-19 (section 3.1). To purify the N-sulfated product, the incubated reaction mixture was centrifuged the following day at 5,000×g for 10 min. The filter was washed once with 2 mL water, and centrifuged again. The filtrate was added to a 1K MWCO Dialysis membrane, dialyzed for 2 days in Milli-Q water, with water changes at 1 h, 2 h, 8 h, 16 h, 32 h, and then lyophilized.
The lyophilized N-sulfated products from each reaction were subsequently digested with a mixture of three carbon-oxygen lyases comprising the amino acid sequences of SEQ ID NO: 30, SEQ ID NO: 31, and SEQ ID NO: 32, which catalyze the β-eliminative cleavage of heparosan-based polysaccharides. Such lyases are available from New England Biolabs, among other chemical and biological commercial entities. 1 μL of each lyase was incubated with 50 μg of the lyophilized sulfated polysaccharide product and the provided digestion buffer, and incubated over 24 hours according to the packaged instructions provided by New England Biolabs with each lyase. After digestion, the lyase enzymes were inactivated by heating to 100° C. for 5 minutes. Samples were centrifuged at 14,000 rpm for 30 minutes before introduction to a strong anion exchange, high performance liquid chromatography (SAX) analysis. SAX analysis was performed on a Dionex Ultimate 3000 LC system interface. Separation was carried out on a 4.6×250 mm Waters Spherisorb analytical column with 5.0 μm particle size at 45° C. Mobile phase solution A was 2.5 mM sodium phosphate, pH 3.5, while mobile phase solution B was 2.5 mM sodium phosphate, pH 3.5, and 1.2 M Sodium perchlorate. After each sample was loaded onto the column, mobile phase solutions were applied to the column at a ratio of 98% mobile phase solution A and 2% mobile phase solution B for five minutes at a flow rate of 1.4 mL/min. After five minutes, a linear gradient of increasing mobile phase solution B was applied until the ratio of mobile phase solution A to mobile phase solution B was 50:50.

Molecule	NST sulfotransferase activity with aryl sulfate compounds
B1	activity with both aryl sulfate compounds
B2	activity with both aryl sulfate compounds

same assay, conditions: procedures of Example 2; expected

Molecule	NST activity: N-sulfated products by SAX
B3	confirm the presence of N-sulfated polysaccharide products
B4	confirm the presence of N-sulfated polysaccharide products
B5	confirm the presence of N-sulfated polysaccharide products
B6	confirm the presence of N-sulfated polysaccharide products
B7	confirm the presence of N-sulfated polysaccharide products
B8	confirm the presence of N-sulfated polysaccharide products
